In article PMC5250619 one finds Kd, koff and kon data, which are given here for 1 substance.

Assay in all cases: BLI
In general terms: BLI is a label-free optical method that tracks binding on a fibre tip over time.

The target in assay [1] is CAP256-VRC26.01 Fab (human).
Assay [2] addresses CAP256-VRC26.03 Fab (human).
For assay [3], the target named is CAP256-VRC26.10 Fab (human).

In assay [1], “BG505.SOSIP.664 soluble HIV-1 Env trimer (from UniProt Q2N0S6 1-860) (complex)” showed a Kd of 680 nM and a koff of 0.0071 s⁻¹. In assay [2], the Kd worked out at 64 nM, the koff came out at 0.0041 s⁻¹ and the kon came to 63000 M⁻¹ s⁻¹. Besides, in assay [3], the Kd stood at 84 nM, the koff was 0.0045 s⁻¹ and the kon is 54000 M⁻¹ s⁻¹.

One may read the Kd as the constant that tells how readily two partners part at equilibrium. A lower Kd goes with a tighter complex. For orientation: koff means the first-order rate constant of dissociation. By kon is commonly meant a measure of how fast the partners come together. Read a high kon as faster complex formation.
